Experimental data reported in patent publication US20260049134A1 (UNIVERSITY OF FLORIDA RESEARCH FOUNDATION, published 2026).
Residue numbers refer to the chain shown, from its start. Numbers in names are those of the source.

B1: HW-42 chimeric rabbit-human IgG1 LA/LA/PG (antibody, V domains shown)
VH: QSVKESEGGLFKPADTLTLTCTVSGFSLSSNEISWVRQAPGEGLEYIGIIDTGGRAYYAVWARSRSTITRNTNLNTVTLKMTSLTAADTATYFCARGGVDTEWYAFSSWGPGTLVTVPS
VL: SFVLTQPASVQVNLGQTVSLTCTADTLSRRYASWYQQKPGQAPVLLIFRDTSRPSGVPDRFSGSSSGDTATLTISGAQAGDEADYYCATSDGSGSNYQYVFGGGTQLTVTG
notes: Fc-silenced (L234A/L235A/P329G) IgG1, lambda; Alexa Fluor 647-labeled in single-step flow cytometry; Cluster C-1
B2: HW-101 chimeric rabbit-human IgG1 LA/LA/PG (antibody, V domains shown)
VH: QEQLVESGGRLVTPGTPLTLTCKASGFSLGKYDMSWVRQAPGKGLEWIGTIYAGSGSTWYASWAKGRFTISKTSTTVDLKMTSLTTEDTATYFCARDFLGVNSIWGPGTLVTISS
VL: B1 VL with R30S, G40D, F48H, S65N, D68N, Y97F, Q98H, Y99F
notes: Fc-silenced (L234A/L235A/P329G) IgG1, lambda; Alexa Fluor 647-labeled in single-step flow cytometry; Cluster C-97
B3: HW-70 chimeric rabbit-human IgG1 LA/LA/PG (antibody, V domains shown)
VH: QSLEESGGRLVTPGTPLTLTCTVSGFSLSSNAMSWVRQAPGKGLEWIGTIDGYGYTYYASWAKGRFTVSKTSTTVDLKITSPTTEDTATYFCAREIYLGSNFWGPGTLVTISS
VL: B1 VL with F48Y, D68N, S90A, N96S, Y99F
notes: as for B1
B4: HW-1 chimeric rabbit-human IgG1 LA/LA/PG (antibody, V domains shown)
VH: QSLEESGGGLFKPTDTLTLTCTASGFSLGSSYAISWVRQAPGKELEWIGTIDSGRAYYARWAKSRSTITRNTNENTVTLKMTSLTAADTATYFCARDLIPTYSQDIWGPGTLVTISS
VL: B1 VL with F48Y, D68N, S95N, N96S, G111S
notes: Fc-silenced (L234A/L235A/P329G) IgG1, lambda; Alexa Fluor 647-labeled in single-step flow cytometry; Prototype of cluster C-1
B5: HW-17 chimeric rabbit-human IgG1 LA/LA/PG (antibody, V domains shown)
VH: QSLGESRGRLVTPDETLTLTCTVSGIDLSSNAMSWVRQAPGEGLEWIGTINTGGRAYYASWAKGRFTISRTSTTVDLKMTSLTTEDTATYFCARERYSDGRAYDIWGPGTLVTISS
VL: B1 VL with F48Y, R49T, T51S, S52N, V57I, D68N, S90D, N96I
notes: as for B1
B6: HW-97 chimeric rabbit-human IgG1 LA/LA/PG (antibody, V domains shown)
VH: QKQLVESGGRLVTPGTPLTLTCTVTGIDLSSHGMSWVRQAPGKGLEWIGVIYPSGSTWYASWARGRFTISKTSTTVDLKMTSLTTEDTATHFCARGDVGGADNNIWGPGTLVTVSS
VL: B1 VL with N13D, D25E, R30S, F48Y, D68N, N96S
notes: Fc-silenced (L234A/L235A/P329G) IgG1, lambda; Alexa Fluor 647-labeled in single-step flow cytometry; Prototype of cluster C-97
B7: HW-25 chimeric rabbit-human IgG1 LA/LA/PG (antibody, V domains shown)
VH: QSLEESGGRLVTPGTPLTLTCTVSGFSLSSYAMGWVRQAPGKGLEWIGIIDSRGSTYYATWAKGRFTISKTSTTVDLKITSPTTEDTATYFCAREDSYYYDSFNLWGPGTLVTVSS
VL: B1 VL with F48Y, D68N, N96S, Y99C
notes: as for B1
B8: HW-113 chimeric rabbit-human IgG1 LA/LA/PG (antibody, V domains shown)
VH: QKQLVESGGGLVQPGGSLTLTCTVSGFSLNKYYMGWFRQAPGKGLEWIGVISRSGDTYYSSWAKGRFTISKASTTVDLRITSPTTEDTATYFCARDASSPGFHGDRLDLWGQGTLVTVSS
VL: B1 VL with R30S, F48Y, D68N, S93I, Q98L, Y99W
notes: Fc-silenced (L234A/L235A/P329G) IgG1, lambda; Alexa Fluor 647-labeled in single-step flow cytometry
B9: HW-8 chimeric rabbit-human IgG1 LA/LA/PG (antibody, V domains shown)
VH: QSLEESGGRLVTPGTPLTLTCTVSGFSLSSYAMSWVRQAPGKGLEWIGAISTGGSTTYASWAKGRFTISKTSSTTVDLKMTSLTTEDTATYFCVRHFRLWGPGTLVTISS
VL: QVLTQTPSSVSAAVGGTVTIKCQASQSIGSALAWFQQKPGQRPKLLIYRASNLASGVPSRFKGSGSGTEFALTISGVQREDAATYYCLGGAAAVWAFGAGTNVEIKR
notes: Fc-silenced (L234A/L235A/P329G) IgG1, kappa; Alexa Fluor 647-labeled in single-step flow cytometry; Cluster C-45
B10: TH9-0022 (antibody, human IgG1, kappa, L234A L235A, V domains shown)
VH: QSLEESGGRLVTPGTPLTLTCTVSGFSLSSYAMNWVRQAPGKGLEWIGIINSYGSTYYASWAKGRFTISKTSTTVDLKITSPTTEDTATYFCARVTYDSYGYGYAPYGMDLWGPGTLVTVSS
VL: LVMTQTPSSTSNAVGGTVTIKCQASQSIGNVLAWYQQKPGQPPKLLIYAASTLASGVPSRVGGSRSGTEYTLTISGVQREDAATYYCLGSDSDSDIAFGGGTELEILR
notes: also called TH9-022; negative control
B11: HW-45 chimeric rabbit-human IgG1 LA/LA/PG (antibody, V domains shown)
VH: QKQLVESGGRLVTPGTPLTLTCTVSGFSLSSYAMGWFRQAPGKGLEWIGIINSYGSTYYASWAKGRFTISKTSTTVDLKITSPTTEDTATYFCGRRIGSARFDPWGPGTLVTVSS
VL: B1 VL with R30S, F48Y, S52R, D68N, N96S, Q98R, Y99L
notes: Fc-silenced (L234A/L235A/P329G) IgG1, lambda; Alexa Fluor 647-labeled in single-step flow cytometry; Prototype of cluster C-45

Biological target: T1, IL13RA1
T1 construct: coated protein in the ELISA; also called IL13RA1-Fc-His (R&D Systems)
T1 chain: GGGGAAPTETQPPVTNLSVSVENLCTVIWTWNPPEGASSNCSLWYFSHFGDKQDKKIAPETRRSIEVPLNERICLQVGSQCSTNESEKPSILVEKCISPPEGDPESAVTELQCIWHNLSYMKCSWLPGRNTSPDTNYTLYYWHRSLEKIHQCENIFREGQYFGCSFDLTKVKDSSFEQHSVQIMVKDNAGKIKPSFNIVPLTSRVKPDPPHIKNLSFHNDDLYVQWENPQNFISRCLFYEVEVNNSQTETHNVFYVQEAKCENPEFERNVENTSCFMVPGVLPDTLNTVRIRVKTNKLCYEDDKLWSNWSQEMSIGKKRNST
Assay: ELISA on coated IL13RA1-Fc-His
Experimental: (§1) Recombinant purified ECDs (50-150 ng) of each putative target protein were coated, incubated with 150 ng of the indicated primary antibody, and binding was detected using a peroxidase-conjugated anti-human Fab secondary antibody. Heatmap represents averages of technical triplicates. (8B) Target validation via siRNA knockdown. H929 cells were transfected with siRNA pools targeting the putative antibody targets ICAM1, CADM1, and PTPRG. Cells were then subjected to cognate IgG binding analysis via flow cytometry. (NT, non-targeting siRNA).
(§2) ELISA ELISA was conducted as described previously. Briefly, 50-150 ng of antigen was coated overnight in half-area 96-well plates at 4° C., blocked with 3% BSA at 37° C. for 1 h, and 150 ng of chimeric rabbit/human IgG1 was added, incubating for 2 h at 37° C. […] After incubating at 37° C. for 15 min-1 h (depending on intensity of controls), data were acquired using a SpectraMax M5 plate reader (Molecular Devices).

Binder | binding result
B1 | no binding (tested: 150 ng IgG1 per well)
B2 | no binding (tested: 150 ng IgG1 per well)
B3 | no binding (tested: 150 ng IgG1 per well)
B4 | no binding (tested: 150 ng IgG1 per well)
B5 | no binding (tested: 150 ng IgG1 per well)
B6 | no binding (tested: 150 ng IgG1 per well)
B7 | no binding (tested: 150 ng IgG1 per well)
B8 | no binding (tested: 150 ng IgG1 per well)
B9 | no binding (tested: 150 ng IgG1 per well)
B10 | no binding (tested: 150 ng IgG1 per well)

The binders below were run against T2, PTPRG, endogenous in H929 multiple myeloma cells (human, UniProt P23470 20-1445) (assay: flow cytometry, H929 + NT Green siRNA; None 1.35).
T2 construct: Native protein on H929 cells (flow cytometry, siRNA knockdown) and in H929 lysates (IP/MS); also called phosphatase receptor type γ
T2 sequence (P23470 20-1445 limits assumed): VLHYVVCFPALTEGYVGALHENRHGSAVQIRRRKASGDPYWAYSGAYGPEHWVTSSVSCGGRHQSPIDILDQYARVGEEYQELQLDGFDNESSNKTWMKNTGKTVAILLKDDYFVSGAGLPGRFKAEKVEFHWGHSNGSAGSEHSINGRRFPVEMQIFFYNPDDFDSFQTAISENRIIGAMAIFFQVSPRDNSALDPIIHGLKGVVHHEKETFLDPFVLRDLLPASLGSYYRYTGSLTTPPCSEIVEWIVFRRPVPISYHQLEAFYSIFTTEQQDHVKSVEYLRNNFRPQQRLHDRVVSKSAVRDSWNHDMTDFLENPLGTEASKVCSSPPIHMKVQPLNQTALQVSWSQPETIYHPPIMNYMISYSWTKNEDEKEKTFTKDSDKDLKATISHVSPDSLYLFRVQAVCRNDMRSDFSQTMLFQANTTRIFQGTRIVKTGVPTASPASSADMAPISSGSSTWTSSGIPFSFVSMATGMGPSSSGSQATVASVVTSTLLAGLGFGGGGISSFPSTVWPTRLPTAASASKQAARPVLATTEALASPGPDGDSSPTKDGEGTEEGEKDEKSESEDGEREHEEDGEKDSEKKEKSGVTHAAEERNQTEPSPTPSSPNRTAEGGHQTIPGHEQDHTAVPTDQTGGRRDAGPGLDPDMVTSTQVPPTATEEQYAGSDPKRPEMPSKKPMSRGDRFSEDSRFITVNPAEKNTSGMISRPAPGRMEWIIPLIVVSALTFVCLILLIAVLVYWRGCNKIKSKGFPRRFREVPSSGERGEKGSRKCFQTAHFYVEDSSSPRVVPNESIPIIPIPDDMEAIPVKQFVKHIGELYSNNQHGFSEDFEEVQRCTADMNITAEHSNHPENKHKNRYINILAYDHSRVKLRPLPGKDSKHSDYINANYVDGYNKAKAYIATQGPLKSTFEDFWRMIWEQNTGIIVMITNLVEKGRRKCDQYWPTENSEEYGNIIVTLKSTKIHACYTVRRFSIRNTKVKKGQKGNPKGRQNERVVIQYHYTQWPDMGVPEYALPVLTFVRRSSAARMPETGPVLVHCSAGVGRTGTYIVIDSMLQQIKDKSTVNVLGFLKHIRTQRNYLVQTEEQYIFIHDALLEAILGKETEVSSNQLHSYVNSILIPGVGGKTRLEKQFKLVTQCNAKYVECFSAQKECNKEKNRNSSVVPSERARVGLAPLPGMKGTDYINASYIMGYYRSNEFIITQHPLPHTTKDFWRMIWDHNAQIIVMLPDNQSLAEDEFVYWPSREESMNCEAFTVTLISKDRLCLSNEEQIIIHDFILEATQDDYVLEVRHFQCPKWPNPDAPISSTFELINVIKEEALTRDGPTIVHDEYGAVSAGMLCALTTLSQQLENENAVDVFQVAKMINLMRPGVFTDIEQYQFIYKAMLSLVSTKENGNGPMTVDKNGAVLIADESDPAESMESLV

Binder | Cells stained (%)
B1 | 97.2
B3 | 98.9
B4 | 99.4
B5 | 99
B7 | 95.7
B10 | 1.86

These binders were tested against T3, GARS, endogenous in H929 multiple myeloma cells (human, UniProt P41250 37-739, limits assumed) (assay: flow cytometry, H929 + vehicle; None 2.74; surface target GARS putative).
T3 construct: Native protein pulled down from H929 lysates; also called Glycyl-tRNA synthetase; GlyRS
T3 sequence: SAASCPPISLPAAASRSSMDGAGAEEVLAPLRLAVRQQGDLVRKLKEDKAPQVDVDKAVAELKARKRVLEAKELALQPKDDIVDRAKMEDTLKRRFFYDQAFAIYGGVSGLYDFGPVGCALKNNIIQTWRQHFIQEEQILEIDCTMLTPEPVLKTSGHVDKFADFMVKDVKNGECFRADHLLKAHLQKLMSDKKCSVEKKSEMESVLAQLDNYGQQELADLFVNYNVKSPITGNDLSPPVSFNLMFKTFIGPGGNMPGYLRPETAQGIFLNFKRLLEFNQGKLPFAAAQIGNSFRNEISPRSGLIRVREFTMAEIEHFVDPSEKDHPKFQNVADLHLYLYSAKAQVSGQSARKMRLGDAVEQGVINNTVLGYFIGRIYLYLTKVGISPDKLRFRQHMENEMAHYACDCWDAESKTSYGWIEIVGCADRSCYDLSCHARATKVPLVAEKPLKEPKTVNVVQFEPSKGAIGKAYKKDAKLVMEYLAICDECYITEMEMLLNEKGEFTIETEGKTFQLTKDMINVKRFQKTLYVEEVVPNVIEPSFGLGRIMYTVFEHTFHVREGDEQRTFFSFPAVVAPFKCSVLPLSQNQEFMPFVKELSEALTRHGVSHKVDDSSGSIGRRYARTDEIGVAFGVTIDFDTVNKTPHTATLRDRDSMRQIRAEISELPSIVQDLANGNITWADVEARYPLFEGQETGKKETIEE

Binder | Cells stained (%)
B11 | 96.8
B9 | 84.7

Each binder was assayed against T2, PTPRG, endogenous in H929 multiple … (assay: flow cytometry, H929 + vehicle; None 513).

Binder | mAb binding (MFI)
B1 | 8320
B3 | 12300
B4 | 15000
B5 | 15700
B7 | 7560
B10 | 595

These binders were tested against T4, ICAM1-Fc (R&D Systems) (human, UniProt P05362 28-480) (assay: ELISA on coated ICAM1-Fc).
T4 construct: Bought; also called ICAM-1/CD54; not shown: Fc of the bought fusion protein
T4 sequence (P05362 28-480): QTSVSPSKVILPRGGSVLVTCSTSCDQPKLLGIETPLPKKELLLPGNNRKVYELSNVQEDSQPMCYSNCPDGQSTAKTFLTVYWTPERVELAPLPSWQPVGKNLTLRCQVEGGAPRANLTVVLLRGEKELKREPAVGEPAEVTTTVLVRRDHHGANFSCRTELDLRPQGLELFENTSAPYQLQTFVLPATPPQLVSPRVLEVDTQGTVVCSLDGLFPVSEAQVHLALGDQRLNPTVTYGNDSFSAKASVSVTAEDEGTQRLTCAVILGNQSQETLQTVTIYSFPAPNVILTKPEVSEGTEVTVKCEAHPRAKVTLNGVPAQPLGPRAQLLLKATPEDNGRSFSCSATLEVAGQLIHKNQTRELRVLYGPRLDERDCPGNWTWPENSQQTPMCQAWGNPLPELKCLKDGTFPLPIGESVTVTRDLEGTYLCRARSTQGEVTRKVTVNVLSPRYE
Experimental: as §1, §2

Binder | binding result
B1 | no binding (tested: 150 ng IgG1 per well)
B3 | no binding (tested: 150 ng IgG1 per well)
B7 | no binding (tested: 150 ng IgG1 per well)
B10 | no binding (tested: 150 ng IgG1 per well)

These binders were tested against T3, GARS, endogenous in H929 multiple … (assay: flow cytometry, H929 + CADM1 siRNA; None 0.89; surface target GARS putative).

Binder | Cells stained (%)
B11 | 97
B9 | 89.3

Biological target: T5, SLAMF7
T5 construct: coated protein in the ELISA; also called SLAMF7-StrepTag
T5 chain: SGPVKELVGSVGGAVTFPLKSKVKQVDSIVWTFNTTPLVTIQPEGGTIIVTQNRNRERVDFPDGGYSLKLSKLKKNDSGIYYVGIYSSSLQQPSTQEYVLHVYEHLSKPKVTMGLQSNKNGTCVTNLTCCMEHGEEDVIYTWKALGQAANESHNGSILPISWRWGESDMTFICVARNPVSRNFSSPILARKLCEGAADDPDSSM
Assay: ELISA on coated SLAMF7-StrepTag
Experimental: as §1, §2

Binder | binding result
B1 | no binding (tested: 150 ng IgG1 per well)
B2 | no binding (tested: 150 ng IgG1 per well)
B3 | no binding (tested: 150 ng IgG1 per well)
B4 | no binding (tested: 150 ng IgG1 per well)
B5 | no binding (tested: 150 ng IgG1 per well)
B6 | no binding (tested: 150 ng IgG1 per well)
B7 | no binding (tested: 150 ng IgG1 per well)
B8 | no binding (tested: 150 ng IgG1 per well)
B9 | no binding (tested: 150 ng IgG1 per well)
B10 | no binding (tested: 150 ng IgG1 per well)

Each binder was assayed against T3, GARS, endogenous in H929 multiple … (assay: flow cytometry, H929 + CDH18 siRNA; None 443; surface target GARS putative).

Binder | mAb binding (MFI)
B11 | 59600
B9 | 75300

Each binder was assayed against T3, GARS, endogenous in H929 multiple … (assay: flow cytometry, H929 + CDH18 siRNA; None 0.19; surface target GARS putative).

Binder | Cells stained (%)
B11 | 99.4
B9 | 99.4

These binders were tested against T3, GARS, endogenous in H929 multiple … (assay: flow cytometry, H929 + GARS siRNA (siRNA against the putative target); None 452).

Binder | mAb binding (MFI)
B11 | 76900
B9 | 109000
